Values joined by “and” are separate entries in the source; they are usually repeats but may differ in a detail not shown here. Identical values can stand only once.
Key:
[1] = target: M2-Strep-tag II fusion protein (Strep II tag, 6xHis tag, full-length human MBL2) (human) (UniProt P11226); test: native gel or EMSA; native PAGE of purified M1 and of purified M2; oligomer size from the apparent molecular weight against the monomer's size by SDS-PAGE; for M2 the names trimer, tetramer, pentamer count subunits of three 32-kDa chains
[2] = target: recombinant human mannan-binding lectin M1 (6xHis, MAKT, human IgG1 Fc C220-G446, Arg linker, human MBL2 neck and CRD 81-228) (human) (UniProt P11226); test: as above

stoichiometry N [1] | stoichiometry N [2] [monomers] | Substance
4 and 3 and 5 |  | M2-Strep-tag II fusion protein (Strep II tag, 6xHis tag, full-length human MBL2) (from UniProt P11226 21-248) (natural protein)
 | 6 | recombinant human mannan-binding lectin M1 (6xHis, MAKT, human IgG1 Fc C220-G446, Arg linker, human MBL2 neck and CRD 81-228) (from UniProt P11226 101-248) (Fc fusion)

From PMC7098737
